Residue numbers refer to the chain shown, from its start. Names may count otherwise.

Results on twelve molecules are retold here after US20210238260A1 (published 2021).

One assay has as its target Factor X (FX) (UniProt P00742 41-488). Put plainly: cell-based or functional assay.
For assay [1], the target named is T1, plasma purified human antithrombin III (AT-III), in complex with unfractionated heparin (UFH) (human, UniProt P01008 33-464).
T1 construct: also called AT-III/UFH
Put plainly: K0.5: AT-III concentration (with excess UFH) for 50% inhibition of FIXa activity on Mesyl-D-CHG-Gly-Arg-AMC, 10 s incubation.

For assay [2], the target named is T2, plasma purified human AT-III (antithrombin III) (human, UniProt P01008 33-464).
T2 construct: also called AT-III/UFH complex
Put plainly: K0.5: AT-III conc. for 50% inhibition of FIXa amidolytic activity, AT-III/UFH titrated, 10 s incubation.

Assay [3] addresses T3, plasma purified human antithrombin III (AT-III), in complex with unfractionated heparin (human, UniProt P01008 33-464).
T3 construct: also called AT-III/UFH
The experiment in a line: AT-III/UFH inhibition of FIXa; K0.5 = AT-III conc. for 50% inhibition of residual activity on Mesyl-D-CHG-Gly-Arg-AMC.

Assay [4] addresses T4, Factor VIIIa (recombinant FVIII, Kogenate FS, activated with alpha-thrombin) (UniProt P00451 20-2351).
T4 construct: also called FVIIIa; cofactor
T4 sequence (looked up): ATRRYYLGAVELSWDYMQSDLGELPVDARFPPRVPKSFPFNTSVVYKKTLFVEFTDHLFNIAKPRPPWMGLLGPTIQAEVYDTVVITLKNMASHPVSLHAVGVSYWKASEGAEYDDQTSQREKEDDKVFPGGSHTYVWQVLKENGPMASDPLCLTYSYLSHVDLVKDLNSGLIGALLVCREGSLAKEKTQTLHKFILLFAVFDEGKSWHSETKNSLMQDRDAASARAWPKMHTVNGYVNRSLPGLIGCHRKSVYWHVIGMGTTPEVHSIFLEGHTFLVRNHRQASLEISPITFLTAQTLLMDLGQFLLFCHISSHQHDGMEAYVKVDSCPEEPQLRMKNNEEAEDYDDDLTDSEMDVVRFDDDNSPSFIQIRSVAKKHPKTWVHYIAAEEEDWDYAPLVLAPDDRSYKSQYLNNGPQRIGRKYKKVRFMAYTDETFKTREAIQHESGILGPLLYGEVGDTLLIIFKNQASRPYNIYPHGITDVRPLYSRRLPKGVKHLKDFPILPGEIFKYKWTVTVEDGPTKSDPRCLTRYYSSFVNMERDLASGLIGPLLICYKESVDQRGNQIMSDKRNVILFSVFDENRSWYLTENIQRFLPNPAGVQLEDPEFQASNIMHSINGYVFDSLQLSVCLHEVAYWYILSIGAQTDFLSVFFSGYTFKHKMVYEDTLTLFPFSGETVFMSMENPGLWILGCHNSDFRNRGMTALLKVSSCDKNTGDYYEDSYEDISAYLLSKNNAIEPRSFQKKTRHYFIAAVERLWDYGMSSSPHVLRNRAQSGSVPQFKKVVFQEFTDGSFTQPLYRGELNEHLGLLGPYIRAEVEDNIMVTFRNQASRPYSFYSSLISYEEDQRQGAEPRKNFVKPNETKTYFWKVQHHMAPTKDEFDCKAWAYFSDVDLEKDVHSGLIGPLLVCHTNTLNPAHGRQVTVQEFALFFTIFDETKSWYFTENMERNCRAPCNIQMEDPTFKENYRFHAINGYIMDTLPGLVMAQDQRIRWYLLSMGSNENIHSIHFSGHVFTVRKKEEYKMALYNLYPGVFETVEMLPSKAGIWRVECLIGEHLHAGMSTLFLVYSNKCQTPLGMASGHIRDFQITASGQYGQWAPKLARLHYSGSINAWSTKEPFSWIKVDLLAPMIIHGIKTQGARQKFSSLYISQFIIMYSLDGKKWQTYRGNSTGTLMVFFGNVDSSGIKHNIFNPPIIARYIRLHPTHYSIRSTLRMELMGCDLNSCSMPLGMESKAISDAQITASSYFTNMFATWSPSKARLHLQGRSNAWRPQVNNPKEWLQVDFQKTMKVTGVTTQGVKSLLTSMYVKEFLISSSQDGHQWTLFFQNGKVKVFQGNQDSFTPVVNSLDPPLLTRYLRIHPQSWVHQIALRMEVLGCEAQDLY
Put plainly: same assay; ratio of KD-app of Catalyst Biosciences WT FIXa to KD-app of this FIXa.

The target of assay [5] is T4, Factor VIIIa (recombinant FVIII, …). Put plainly: apparent functional KD (KD-app): FXa generation by FIXa with FVIIIa titrated, PC/PS vesicles, saturating FX, fluorogenic Spectrafluor FXa.

B1: FIXa-R318Y/R338E/T343R (enzyme)
chain 1: YNSGKLEEFVQGNLERECMEEKCSFEEAREVFENTERTTEFWKQYVDGDQCESNPCLNGGSCKDDINSYECWCPFGFEGKNCELDVTCNIKNGRCEQFCKNSADNKVVCSCTEGYRLAENQKSCEPAVPFPCGRVSVSQTSKLTR
chain 2: VVGGEDAKPGQFPWQVVLNGKVDAFCGGSIVNEKWIVTAAHCVETGVKITVVAGEHNIEETEHTEQKRNVIRIIPHHNYNAAINKYNHDIALLELDEPLVLNSYVTPICIADKEYTNIFLKFGSGYVSGWGRVFHKGYSALVLQYLRVPLVDRATCLESTKFRIYNNMFCAGFHEGGRDSCQGDSGGPHVTEVEGTSFLTGIISWGEECAMKGKYGIYTKVSRYVNWIKEKTKLT
Take B1: in the assay with Factor X (FX), the “Factor X activation, fold over wild-type or BeneFIX FIX” value was roughly 2.5 fold.

B2: FIXa-K247N/N249S/N260S (enzyme)
chain 1: B1 chain 1
chain 2: B1 chain 2 with K67N, N69S, N80S, Y138R, E158R, R163T
notes: also called K82N/N84S/N95S (chymotrypsin numbering)
As a reminder, the IC50 is the midpoint of a concentration-inhibition curve. Low readings indicate greater potency in that assay, high ones weaker potency in that assay. B2 had an IC50 in assay [1] of 157 nM.

B3: FIXa-Y155F/K247N/N249S/N260S (enzyme)
chain 1: B1 chain 1
chain 2: B1 chain 2 with K67N, N69S, N80S, Y138R, E158R, R163T
Consider B3, for which the half-maximal inhibitory concentration (IC50) in assay [1] was found to be 152 nM.

B4: FIXa-K247N/N249S/N260S/R318Y/R338E/R403E/E410N (enzyme)
chain 1: B1 chain 1
chain 2: B1 chain 2 with K67N, N69S, N80S, R163T, R223E, E230N
notes: also called K82N/N84S/N95S/R150Y/R170E/R233E/E240N (chymotrypsin numbering)
As for B4, in assay [1], half-maximal inhibition (IC50) was put at 5560 nM.

B5: FIXa-A103N/N105S/R318Y/R338E/R403E/E410N (enzyme)
chain 1: B1 chain 1 with A103N, N105S
chain 2: B1 chain 2 with R163T, R223E, E230N
As for B5, in assay [2], the IC50 is 9190 nM.

B6: FIXa D203N/F205T/R318Y/E410N (enzyme)
light: B1 chain 1
heavy: B1 chain 2 with D23N, F25T, E158R, R163T, E230N
notes: also called D39N/F41T/R150Y/E240N
In assay [3], B6 yielded an IC50 of 1280 nM.

B7: FIXa-D104N/K106S/Y155F/K247N/N249S/N260S (enzyme)
chain 1: B1 chain 1 with D104N, K106S
chain 2: B1 chain 2 with K67N, N69S, N80S, Y138R, E158R, R163T
The molecule B7 gave an IC50 in assay [1] of 692 nM.

B8: FIXa A103N/N105S/R318Y/R338E/R403E/E410N (enzyme)
light: B1 chain 1 with A103N, N105S
heavy: B1 chain 2 with R163T, R223E, E230N
In assay [3], B8 yielded an IC50 of 9190 nM.

B9: FIXa-R338E/R403E/E410N (enzyme)
chain 1: B1 chain 1
chain 2: B1 chain 2 with Y138R, R163T, R223E, E230N
notes: also called R170E/R233E/E240N
Regarding B9, the KD-WT/KD-mut in assay [4] came out at 1.7. For the same molecule, in assay [5], the Kd came to 54.9 nM.

B10: FIXa-D104N/K106S/K247N/N249S/N260S (enzyme)
chain 1: B1 chain 1 with D104N, K106S
chain 2: B1 chain 2 with K67N, N69S, N80S, Y138R, E158R, R163T
Molecule B10 yielded an IC50 in assay [1] of 1260 nM.

B11: FIXa-R318Y/R338E/R403E/E410N (enzyme)
chain 1: B1 chain 1
chain 2: B1 chain 2 with R163T, R223E, E230N
notes: also called R150Y/R170E/R233E/E240N
For the molecule B11, the KD-WT/KD-mut in assay [4] turned out to be 2. Further, in assay [5], the Kd is 47 nM.

B12: FIXa-D203N/F205T/R318Y/E410N (enzyme)
chain 1: B1 chain 1
chain 2: B1 chain 2 with D23N, F25T, E158R, R163T, E230N
notes: as for B6
For the molecule B12, the IC50 in assay [2] is 1280 nM.
